In paper PMC8882007, “Syndapin-2 mediated transcytosis of amyloid-β across the blood–brain barrier” (Brain Communications, 2022):

Tests used:
Assay in all cases: proximity ligation; Duolink PLA between two endogenous proteins in polarized bEnd3 monolayers, fixed in 4% PFA and permeabilized with 0.1% Triton X-100; two primary antibodies overnight at 4°C; PLA signal normalized by the number of nuclei; also in shRNA control (scramble) and syndapin-2 knockdown cells, and after FAM-Aβ (1–40) or Aβ monomers, oligomers or fibrils for 15 min
[1] = biological target: Rab11 (mouse (endogenous in bEnd3)) (UniProt P62492)
Rab11 (mouse (endogenous in bEnd3)), sequence (P62492 whole entry): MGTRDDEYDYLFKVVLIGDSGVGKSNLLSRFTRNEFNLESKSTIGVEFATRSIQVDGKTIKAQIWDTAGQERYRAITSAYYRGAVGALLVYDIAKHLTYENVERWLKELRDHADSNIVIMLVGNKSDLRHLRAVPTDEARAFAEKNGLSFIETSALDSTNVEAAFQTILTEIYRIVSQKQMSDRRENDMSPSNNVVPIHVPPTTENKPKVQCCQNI

[2] = biological target: Rab5 (mouse (endogenous in bEnd3)) (UniProt Q9CQD1)
Rab5 (mouse (endogenous in bEnd3)), sequence (Q9CQD1 whole entry): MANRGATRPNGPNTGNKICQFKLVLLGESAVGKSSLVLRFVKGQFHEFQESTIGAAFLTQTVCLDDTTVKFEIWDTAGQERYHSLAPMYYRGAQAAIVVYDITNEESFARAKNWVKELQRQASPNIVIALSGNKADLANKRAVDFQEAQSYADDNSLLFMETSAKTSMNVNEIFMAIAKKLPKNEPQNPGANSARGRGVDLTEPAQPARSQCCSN

[3] = biological target: Rab7 (mouse (endogenous in bEnd3)) (UniProt P51150)
Rab7 (mouse (endogenous in bEnd3)), sequence (P51150 whole entry): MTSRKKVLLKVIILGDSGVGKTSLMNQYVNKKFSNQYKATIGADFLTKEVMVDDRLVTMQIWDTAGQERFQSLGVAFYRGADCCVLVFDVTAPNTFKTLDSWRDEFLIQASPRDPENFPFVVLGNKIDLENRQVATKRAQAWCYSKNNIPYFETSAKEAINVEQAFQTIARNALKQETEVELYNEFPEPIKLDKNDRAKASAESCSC

Measured: PLA dots per cell (dots per cell)

syndapin-2, sequence (Q9WVE8 whole entry): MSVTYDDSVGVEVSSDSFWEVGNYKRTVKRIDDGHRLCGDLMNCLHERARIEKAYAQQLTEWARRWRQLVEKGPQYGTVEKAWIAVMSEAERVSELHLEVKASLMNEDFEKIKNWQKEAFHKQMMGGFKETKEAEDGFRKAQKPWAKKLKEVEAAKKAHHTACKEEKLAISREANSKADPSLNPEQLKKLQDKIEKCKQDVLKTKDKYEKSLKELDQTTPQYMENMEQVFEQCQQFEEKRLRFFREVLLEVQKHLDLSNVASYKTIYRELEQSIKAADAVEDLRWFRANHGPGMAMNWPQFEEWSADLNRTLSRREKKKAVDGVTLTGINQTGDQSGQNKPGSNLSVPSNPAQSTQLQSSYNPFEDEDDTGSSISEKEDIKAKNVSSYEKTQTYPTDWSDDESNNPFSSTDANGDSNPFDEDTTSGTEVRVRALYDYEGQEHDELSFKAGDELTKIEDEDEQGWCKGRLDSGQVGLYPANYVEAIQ

syndapin-2 (from UniProt Q9WVE8 1-486) (natural protein)
< 20: all assays above
